Assay [1] addresses human cardiac troponin C, wild type (human, UniProt P63316 1-161). The assay is described as follows: NMR titration; 1H-15N HSQC spectra at 37 °C of WT or C84Y cTnC in the Ca2+-bound (primed) state, without peptide and with increasing concentrations of peptide (15, 40, 70, 120, 150 and 200 μM); normalized 1H chemical shifts against peptide concentration. To be noted: both partners purified.

Assay [2] has as its target human cardiac troponin C C84Y (human, UniProt P63316 1-161, C84Y). The assay is described as above. The note with it: both partners purified.

B1: inhibitory cardiac TnI peptide iTnI128-147 (peptide)
peptide: Ac-LTQKIFDLRGKFKRPTLRRV-NH2
notes: source: synthetic peptide (Genscript, purity higher than 95%)
Regarding B1, the Kd was determined as 59 ± 3.6 µM in assay [1] and 66 ± 5.5 µM in assay [2].
